# According to the nanobody polyreactivity screen of Harvey et al. (2022):
# Test: yeast display, Sf9 membrane polyspecificity reagent, FACS + sequencing; frameworks hold sequencing errors
# Summary of the method: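 Sorting gates, low and high (top ~1%), were placed on anti-HA fluorescence to track expression and on streptavidin fluorescence to track reagent binding. A clone's polyreactivity label is taken from the gate it came out of. The reagent was 10% biotinylated, detergent-solubilized Sf9 membrane, applied for 1 hour at 4 °C to galactose-induced yeast display cells.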
row,Sequence,polyreactivity (PSR sort gate)
1,QVQLVESGGGLVQAGGSLRLSCAASGSTFAYYAMGWYRQAPGKERELVAVISVRGGSTYYADSVKGRFTISRDYAKNTVYLQMNSLKPEDTAVYYCAADTFAGYYYWGQGTQVTVSS,high polyreactivity
2,QVQLVESGGGLVQAGGSLRLSCAASGRTFALNTMGWYRQAPGKERELVAAITIGGSTYYADSVKGRFTISRDNAKNTVYLQMNSLKPEDTAVYYCAARTRGAWAYWGQGTQVTVSS,high polyreactivity
3,QVQLVESAGGLVQAGGSLRLSCAASGITFKYNAMGWYRQAPGKERELVAAISKGGGSTYYADSVKGRFTISRDNAKNTVYLQMNSLKPEDTAVYYCAARRWYRFDYWGQGTQVTVSS,high polyreactivity
4,QVQLVESGGGLVQAGGSLRLSCAASGSIFLYNAMGWYRQAPGKERELVASITYGSGSTYYADSVKGRFTISRDNAKNTVYLQMNSLKPEDTAVYYCAATRYYRHGRYDSWGQGTQVTVSS,high polyreactivity
5,QVQLVESWGGLVQAGGSLRLSCAASGSTFVAYAMGGYRQAPGKEREFVAGISVRGGSTYYADSVKGRFTISRDNAKNTVYLQMNSLKPEDTAVYYCAARRVDTRVHVRYRYYYWGQGTQVTVSS,high polyreactivity
6,QVQLVESGGGLVQAGGSLRLSCAASGSIFWYYAMGWYRQAPGKERELVAAISTSGTSTYYADSVKGRFTISRDNAKNTVYLQMNSLKPEDSAVYYCAKRSGARHRLMDYWGQGTQVTVSS,low polyreactivity
7,QVQLVESGGGLVQAGGSLRLSCAASGFTFKWSAMGWYRPAPGKETELVATITIGGRTNYADSVKGRFTISRDNAKYTVYLQMNSLKPEDTAVYYGATYFVGFRLSDYDYWGQGTQVTVSS,low polyreactivity
8,QVQLVDSGGGLVQAGGSLRLSCAASGRTFVSYAMGWYRQAPGKERELVAAISRSGGRTYYADSVKGRFTISRDNAMNSVYLQMNCLKPEDTAVYYCATKQYGTLARYDYWGQGSQVTVSS,high polyreactivity
9,QVQLVESGGGLVQAGGSLRISCAASGSSFHDYAMGWYTQAPGKERELVAAISSSGTSTYYADSVKGRFTISRDNANNTVYLQMNILKPEDTAVYYCAVYAISFAWSGWTYEDYWGQGTQVNVSS,low polyreactivity
10,QVQLVESGGGLVQAGGSLRLSCAASGSTFGRYAMGWYRQAPGKERELVAAISPRGGSTYYADSVKGRFTISRDNAKNTVYLQMNSLKPEDTAVYYCATGYPIDLGREFDYWGQGIQVTVSS,high polyreactivity
11,QVQLVESGGGLVQAGGSLRLSCAASGIIFAHNAMGWYRQAPGKERELVAAISKRGGSTYYADSVKGRFTISLDNAKNTVYLQMNSLKPEDTAVYYCAAASFTWVSRGYDYWGQGTQVTVAS,high polyreactivity
12,QVQLVESGGGLVQAGGSLRLSCAASGSILDVYAMGWYRQAPGKERELVATISWSGGDTYYADSVKGRFTISRDNAKNTVYLQMNSLKPEDTAVYYCNDVFSYYGYDYWGQGTQVTVSS,low polyreactivity
13,QVQLVESGGGLVHAGGSLRLSCAASGFTFGQYAMGWYRQAPGKERELVAAIRSGGSTNYADSVKGRFTISRDNAKNTVYLQMNSLKPEDTAVYYCAAGYRRGWVTMGYWGQGTQVTVSS,high polyreactivity
14,QGQLVESGGRLVQAGVSLRLSCAASGFIFPKYAMGWYRQAPGKERELVAVITWRSGSTYYADSVKGRFTISRDNAKNTVYLQMNSLKTEETADYYCNARRSSGRYSKMGYWGQGTQVTVSS,high polyreactivity
15,QVQLVESGGGLVQAGGSLRLSCAASGRIFSYMGWYRQAPGKERELVASISWSGGSTYYADSVKGRFTISRDNAKNTVYLQMNSLKPEDTAVYYCAAYLRSYVRYYYWGQGTQVTVSS,high polyreactivity
16,QVQLVESGGGLVQAGGSLRLSCAASGSIFDPYAKGWYRQAPGKEREFVAAITGSGGSTSYADSVKGRFTISRDNAKNTVYLQMNSLKPEDTAVYYCAARRTVEWGQGTQVTVSS,high polyreactivity
17,QVQLVESGGGLVQAGGSLRLSCAASGSTFSGNAMGWYRQAPGKERELVAAISWSGDTTYYADSVKGRFTISRDNAKNTVYLQMNSLKPEDTAVYYCAVRYYWRRMNYWGQGTQVTVSS,high polyreactivity
18,QVQLVESGGGFVQAGGSLRLSCAASGFIFAVNAMGWYRQAPGKERELVAAISSSGTTNYADSVKGRFTISRDNAKNTVYLQMNSLKPEDTAVYYCNKRWRDKYPQYDYWGQGTQVTVSS,low polyreactivity
19,QVQLVESGGGLVQAGGSLRLSCAASGRTFRYYAMGWYRQAPGKERELVAAISSRGNTYYADSVKGRFTISRDNAKNTVYLQLNSLKPEDTAVYYCAAYVYRVQYDFVYWGQGTQVTVSS,high polyreactivity
20,QVQLVESGGGLVQAGGSLRLSCAASGIIFDDYAMGWYRQAPGKERELVAAINSNGGTTYYADSVKGRFTISRDNAKNTVYLHMNSLKPEDTAVYYCAKAYPGTYREYDYWGQGTQVTVSS,high polyreactivity
21,QVQLVESGGGLVQAGGSLRLSCAASGDISYIYAMGWYRQAPGKEREMVADISSSVGNTYYADSVKGRFTISRDNAKNTVYLQMNSLKPEDTAVYYCNADYVQPTESGGTYDYWGQGTQVTVSS,low polyreactivity
